The experiment deals with Bax (human (endogenous in U-2 OS and Sa OS)) (UniProt Q07812). Put plainly: co-IP.

Some results are limits rather than exact numbers.

Ku70, sequence (P12956 whole entry): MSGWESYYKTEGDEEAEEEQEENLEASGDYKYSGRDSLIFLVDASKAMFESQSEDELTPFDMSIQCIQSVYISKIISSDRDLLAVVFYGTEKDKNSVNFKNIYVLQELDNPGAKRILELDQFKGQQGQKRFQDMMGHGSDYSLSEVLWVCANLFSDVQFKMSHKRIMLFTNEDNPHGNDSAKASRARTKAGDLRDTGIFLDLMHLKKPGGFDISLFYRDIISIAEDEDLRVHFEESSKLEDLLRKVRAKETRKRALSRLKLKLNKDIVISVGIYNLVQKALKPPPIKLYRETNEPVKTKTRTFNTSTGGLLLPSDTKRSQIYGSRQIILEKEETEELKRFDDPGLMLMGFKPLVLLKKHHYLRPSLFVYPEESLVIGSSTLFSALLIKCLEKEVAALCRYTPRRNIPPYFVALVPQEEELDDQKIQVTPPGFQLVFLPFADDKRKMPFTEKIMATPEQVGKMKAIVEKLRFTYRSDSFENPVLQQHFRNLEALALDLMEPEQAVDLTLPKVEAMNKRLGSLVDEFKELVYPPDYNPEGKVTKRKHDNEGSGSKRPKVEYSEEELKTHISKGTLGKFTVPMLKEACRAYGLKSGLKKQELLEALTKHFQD
Bax (human (endogenous in U-2 OS and Sa OS)), sequence (Q07812 whole entry): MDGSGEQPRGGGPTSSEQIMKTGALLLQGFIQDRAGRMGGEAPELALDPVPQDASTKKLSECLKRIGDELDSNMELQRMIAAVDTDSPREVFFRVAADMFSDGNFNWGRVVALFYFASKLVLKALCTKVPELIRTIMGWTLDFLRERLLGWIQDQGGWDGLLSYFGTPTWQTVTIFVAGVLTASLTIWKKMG

In turn, “Ku70 (from UniProt P12956 1-609) (natural protein)” had a percent of Ku70 remaining bound to Bax after sCLU depletion of under 25%.

These data come from PMC4483278.
